Laboratory results: IntAct's records for PubMed 14673118

B1: Thioredoxin (Synechocystis sp. (strain PCC 6803 / Kazusa)), P52231 (parent)
chain: MSATPQVSDASFKEDVLDSELPVLVDFWAPWCGPCRMVAPVVDEISQQYEGKVKVVKLNTDENPNTASQYGIRSIPTLMIFKGGQRVDMVVGAVPKTTLASTLEKYL
partner: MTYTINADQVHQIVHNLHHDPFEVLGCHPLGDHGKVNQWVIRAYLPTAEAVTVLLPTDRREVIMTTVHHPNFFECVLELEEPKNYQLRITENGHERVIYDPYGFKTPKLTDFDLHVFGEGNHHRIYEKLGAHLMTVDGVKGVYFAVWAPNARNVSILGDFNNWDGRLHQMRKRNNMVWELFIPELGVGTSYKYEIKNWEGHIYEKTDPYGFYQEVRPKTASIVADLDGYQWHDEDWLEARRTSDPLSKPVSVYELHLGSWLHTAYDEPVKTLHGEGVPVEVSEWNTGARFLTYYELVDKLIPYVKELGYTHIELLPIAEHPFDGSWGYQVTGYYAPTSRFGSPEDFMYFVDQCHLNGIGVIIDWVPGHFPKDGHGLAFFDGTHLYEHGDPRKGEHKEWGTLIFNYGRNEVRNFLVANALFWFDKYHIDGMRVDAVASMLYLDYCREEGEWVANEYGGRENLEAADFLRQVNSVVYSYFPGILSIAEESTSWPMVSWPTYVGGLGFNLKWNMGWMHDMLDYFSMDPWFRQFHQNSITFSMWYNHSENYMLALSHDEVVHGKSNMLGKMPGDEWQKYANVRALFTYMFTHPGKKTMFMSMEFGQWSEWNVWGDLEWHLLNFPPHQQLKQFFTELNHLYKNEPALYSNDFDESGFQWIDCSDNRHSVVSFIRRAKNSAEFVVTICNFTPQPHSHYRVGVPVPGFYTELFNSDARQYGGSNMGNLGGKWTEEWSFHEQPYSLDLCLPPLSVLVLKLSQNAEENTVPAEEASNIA
B2: Thioredoxin (Synechocystis sp. (strain PCC 6803 / Kazusa)), P52231 (parent)
chain: B1 chain
partner: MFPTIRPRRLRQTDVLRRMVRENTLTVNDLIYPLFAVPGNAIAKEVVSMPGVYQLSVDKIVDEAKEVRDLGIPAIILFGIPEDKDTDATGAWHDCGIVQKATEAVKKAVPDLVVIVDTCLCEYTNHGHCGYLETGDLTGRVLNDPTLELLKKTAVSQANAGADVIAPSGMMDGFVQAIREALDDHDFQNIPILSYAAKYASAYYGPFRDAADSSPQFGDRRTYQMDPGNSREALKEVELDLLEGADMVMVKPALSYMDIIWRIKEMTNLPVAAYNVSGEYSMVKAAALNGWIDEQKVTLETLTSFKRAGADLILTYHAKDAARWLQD
B3: Thioredoxin (Synechocystis sp. (strain PCC 6803 / Kazusa)), P52231 (parent)
chain: B1 chain
partner: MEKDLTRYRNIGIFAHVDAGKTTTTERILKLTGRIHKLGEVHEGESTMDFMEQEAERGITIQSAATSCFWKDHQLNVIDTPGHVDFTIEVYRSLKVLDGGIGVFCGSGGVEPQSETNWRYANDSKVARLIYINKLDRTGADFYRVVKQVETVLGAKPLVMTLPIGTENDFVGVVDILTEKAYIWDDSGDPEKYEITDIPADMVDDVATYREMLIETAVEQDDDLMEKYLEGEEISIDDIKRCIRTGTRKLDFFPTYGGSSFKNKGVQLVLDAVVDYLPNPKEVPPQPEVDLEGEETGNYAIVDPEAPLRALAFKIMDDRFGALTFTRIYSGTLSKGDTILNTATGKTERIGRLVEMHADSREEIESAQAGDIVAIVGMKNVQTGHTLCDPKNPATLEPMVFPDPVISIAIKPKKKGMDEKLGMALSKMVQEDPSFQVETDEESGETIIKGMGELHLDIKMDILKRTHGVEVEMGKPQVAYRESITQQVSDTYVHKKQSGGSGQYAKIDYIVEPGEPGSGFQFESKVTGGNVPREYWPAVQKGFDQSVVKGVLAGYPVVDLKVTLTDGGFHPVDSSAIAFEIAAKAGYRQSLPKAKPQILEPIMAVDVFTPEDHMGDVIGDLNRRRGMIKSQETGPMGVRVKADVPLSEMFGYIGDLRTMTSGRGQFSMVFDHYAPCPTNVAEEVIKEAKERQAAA
B4: Thioredoxin (Synechocystis sp. (strain PCC 6803 / Kazusa)), P52231 (parent)
chain: B1 chain
partner: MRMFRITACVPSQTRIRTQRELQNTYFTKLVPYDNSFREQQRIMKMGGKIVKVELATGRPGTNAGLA
B5: Thioredoxin (Synechocystis sp. (strain PCC 6803 / Kazusa)), P52231 (parent)
chain: B1 chain
partner: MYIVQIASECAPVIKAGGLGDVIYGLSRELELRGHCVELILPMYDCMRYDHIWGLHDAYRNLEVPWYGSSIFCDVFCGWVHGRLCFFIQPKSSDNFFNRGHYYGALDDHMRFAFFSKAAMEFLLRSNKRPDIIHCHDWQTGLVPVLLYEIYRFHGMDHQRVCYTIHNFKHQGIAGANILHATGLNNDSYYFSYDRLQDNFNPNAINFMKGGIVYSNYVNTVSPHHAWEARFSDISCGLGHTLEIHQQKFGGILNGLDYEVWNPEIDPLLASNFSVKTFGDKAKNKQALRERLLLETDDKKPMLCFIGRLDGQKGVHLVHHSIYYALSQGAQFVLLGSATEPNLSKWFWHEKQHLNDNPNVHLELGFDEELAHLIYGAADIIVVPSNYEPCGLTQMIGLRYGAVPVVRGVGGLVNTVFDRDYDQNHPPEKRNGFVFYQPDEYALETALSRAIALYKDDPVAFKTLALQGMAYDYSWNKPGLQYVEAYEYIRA
B6: Thioredoxin (Synechocystis sp. (strain PCC 6803 / Kazusa)), P52231 (parent)
chain: B1 chain

Variants of: B1
Settings: with glgb_syny3 glgB
C35S was tested, and the “effect of a mutation on the interaction” value was “increasing interaction”.

Variants of: B2
Settings: with hem2_syny3 hemB
C35S was tested, and the “effect of a mutation on the interaction” value was “increasing interaction”.

Variants of: B3
Settings: with efg1_syny3 fusA
For C35S, the “effect of a mutation on the interaction” value was “increasing interaction”.

Variants of: B4
Settings: with pyc1_syny3 apcC
C35S was tested, and the “effect of a mutation on the interaction” value was “increasing interaction”.

Variants of: B5
Settings: with glga2_syny3 glgA2, P72623
For C35S, the “effect of a mutation on the interaction” value was “increasing interaction”.

Variants of: B6
Settings: with glts_syny3 gltS
For C35S, the “effect of a mutation on the interaction” value was “increasing interaction”.

Variants of: B6
Settings: with rbl_syny3 cbbL
In the case of C35S, the “effect of a mutation on the interaction” value is reported as “increasing interaction”.

Variants of: B6
Settings: with eftu_syny3 tuf
In the case of C35S, the “effect of a mutation on the interaction” value is reported as “increasing interaction”.

Variants of: B6
Settings: with gltb_syny3 gltB
For C35S, the “effect of a mutation on the interaction” value was “increasing interaction”.

Variants of: B6
Settings: with apce_syny3 apcE
For C35S, the “effect of a mutation on the interaction” value was “increasing interaction”.
